Test system: human iPS cell-derived motor neuron / variant human SOD1 (G93A)-expressing astrocyte coculture
Test: Motor neuron protection in in vitro ALS model derived from human iPS cells
Format: cell-based
Conditions: antibody A 10, 30, 100 nM; EphA4-Fc 3, 10, 30 nM; KYL peptide 1, 3, 10 μM; 2 days
Method: Human iPS cells were maintained and cultured according to the following steps. Human iPS cells (201B7) cryopreserved in liquid nitrogen using Stem cell banker (TAKARA) were taken out of the gas phase of liquid nitrogen and immediately suspended and thawed in 5 mL of a human iPS cell culture medium (Essential 8, Thermo Fisher Scientific) prewarmed to 37° C. The cell suspension was recovered into a 15-mL conical tube (Falcon) and centrifuged (1000 rpm, 5 min, room temperature), followed by the removal of the supernatant. The cells were suspended in a fresh medium and then disseminated to a ϕ60 mm cell culture dish (Falcon BD) coated with 0.5 μg/cm^2 Human recombinant vitronectin (Invitrogen) in advance. 10 μM Y-27632 (Wako Pure Chemical Industries) was added thereto, and the cells were maintained and cultured in a CO2 incubator (5% CO2, 37° C.). Medium replacement was performed every day, and the cells were subjected to the experiment when reaching confluency.
The culture medium of the maintained and cultured human iPS cells was aspirated, and the cells were washed with 2 mL of PBS (Wako Pure Chemical Industries). […] Then, the number of cells was counted using a counting chamber. […]

B1: antibody A: mouse anti-EphA4 monoclonal antibody, IgG1/κ; heavy chain variable region SEQ ID NO: 11, light chain variable region SEQ ID NO: 13 (antibody, listed as Mus musculus, V domains shown)
VH: QIQLVQSGPELKKPGETVKISCKASGYTFTDYSMHWVKQAPGKGLKWMGWINTETGEPTYADDFKGRFAFSLETSASTAYLQINNLKNEDTATYFCARIPLYYYGSRYWYFDVWGAGTTVTVSS
VL: DIQMTQSPASLSVSVGETVTITCRASENIYRNLAWYQQKQGKSPQLLVYAATNLADGVPSRFSGSGSGTQYSLKINSLQSEDFGSYYCQHFWGTPWTFGGGTKLEIK
For B1, the “suppression of motor neuron death / motor neuron protective effect (in words)” value was “suppressed, in a concentration-dependent manner”.
